Data from paper PMC5812564.
Values belong to the substance of their own block, whether it stands above or below them.

Legend:
[1] = target: S100A1 as used in the titrations with the RAGE V domain (mutant-S100A1 (C85S) by the introduction) (human); experiment: NMR titration; 1H-15N HSQC, 15N-labelled protein with the unlabelled partner added, each pair in both directions, molar ratios 1:0 and 1:1 (1:0.66 and 1:1 for Kd); 25 °C; 20 mM Tris, 5 mM CaCl2, 5 mM DTT, 50 mM (NH4)2SO4, pH 7.2; Kd as the mean over selected residues
RAGE V domain = RAGE V domain (UniProt Q15109)
S100A1 (human) [2] = experiment: other fluorescence titration; intrinsic tryptophan fluorescence of 3.50 μM S100A1, S100B added from 0 to 42 μM in steps of 2 μM; excitation 295 nm, emission read at 351 nm
S100A1 (human) [3] = experiment: NMR titration; 1H-15N HSQC, 15N-labelled protein with the unlabelled partner added, each pair in both directions, molar ratios 1:0 and 1:1 (1:0.66 and 1:1 for Kd); 25 °C; 20 mM Tris, 5 mM CaCl2, 5 mM DTT, 50 mM (NH4)2SO4, pH 7.2; Kd as the mean over selected residues

Chain of RAGE V domain (Q15109 24-128): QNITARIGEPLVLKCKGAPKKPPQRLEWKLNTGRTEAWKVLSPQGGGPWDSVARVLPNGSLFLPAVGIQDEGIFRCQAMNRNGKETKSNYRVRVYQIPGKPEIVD

Kd [1]: 6.13 µM
Substance: RAGE V domain (from UniProt Q15109 24-128) (domain or fragment)

Substance: S100A1 (natural protein)
WST-1 proliferation assay, serum-starved SW480 cells (RAGE highly expressed) treated for 48 h with 10, 50 and 100 nM S100A1; viable cell count against the serum-free control (RAGE V domain): 1.53 fold | WST-1 proliferation assay, serum-starved SW480 cells treated for 48 h with 100 nM S100A1 and 100 nM S100B; viable cell count against the serum-free control (RAGE V domain): 1.39 fold

Kd (S100A1 (human) [2]): 1.9 µM | Kd (S100A1 (human) [3]): 5.9 µM
Substance: S100B (natural protein)
